# Assay results from paper PMC8956256 (Science Advances, 2022).
# B1: Human TMEM175 (transmembrane protein 175) (natural protein)
# chain: MSQPRTPEQALDTPGDCPPGRRDEDAGEGIQCSQRMLSFSDALLSIIATVMILPVTHTEISPEQQFDRSVQRLLATRIAVYLMTFLIVTVAWAAHTRLFQVVGKTDDTLALLNLACMMTITFLPYTFSLMVTFPDVPLGIFLFCVCVIAIGVVQALIVGYAFHFPHLLSPQIQRSAHRALYRRHVLGIVLQGPALCFAAAIFSLFFVPLSYLLMVTVILLPYVSKVTGWCRDRLLGHREPSAHPVEVFSFDLHEPLSKERVEAFSDGVYAIVATLLILDICEDNVPDPKDVKERFSGSLVAALSATGPRFLAYFGSFATVGLLWFAHHSLFLHVRKATRAMGLLNTLSLAFVGGLPLAYQQTSAFARQPRDELERVRVSCTIIFLASIFQLAMWTTALLHQAETLQPSVWFGGREHVLMFAKLALYPCASLLAFASTCLLSRFSVGIFHLMQIAVPCAFLLLRLLVGLALATLRVLRGLARPEHPPPAPTGQDDPQSQLLPAPC
# Molecular target: the molecule itself
# Assay: cryo-EM structure
protein,measurement,value
B1,stoichiometry N,2
